B1: CDCA4 (found with purified B55 variants) [human] / B55α WT (immunopurified, Fig. 2) [not stated] (parent complex)
chain 1: MFARGLKRKCVGHEEDVEGALAGLKTVSSYSLQRQSLLDMSLVKLQLCHMLVEPNLCRSVLIANTVRQIQEEMTQDGTWRTVAPQAAERAPLDRLVSTEILCRAAWGQEGAHPAPGLGDGHTQGPVSDLCPVTSAQAPRHLQSSAWEMDGPRENRGSFHKSLDQIFETLETKNPSCMEELFSDVDSPYYDLDTVLTGMMGGARPGPCEGLEGLAPATPGPSSSCKSDLGELDHVVEILVET
chain 2: MAGAGGGNDIQWCFSQVKGAVDDDVAEADIISTVEFNHSGELLATGDKGGRVVIFQQEQENKIQSHSRGEYNVYSTFQSHEPEFDYLKSLEIEEKINKIRWLPQKNAAQFLLSTNDKTIKLWKISERDKRPEGYNLKEEDGRYRDPTTVTTLRVPVFRPMDLMVEASPRRIFANAHTYHINSISINSDYETYLSADDLRINLWHLEITDRSFNIVDIKPANMEELTEVITAAEFHPNSCNTFVYSSSKGTIRLCDMRASALCDRHSKLFEEPEDPSNRSFFSEIISSISDVKFSHSGRYMMTRDYLSVKIWDLNMENRPVETYQVHEYLRSKLCSLYENDCIFDKFECCWNGSDSVVMTGSYNNFFRMFDRNTKRDITLEASRENNKPRTVLKPRKVCASGKRKKDEISVDSLDFNKKILHTAWHPKENIIAVATTNNLYIFQDKVN
B2: IER2 (found with purified B55 variants) [human] / B55α WT (immunopurified, Fig. 2) [not stated] (parent complex)
chain 1: MEVQKEAQRIMTLSVWKMYHSRMQRGGLRLHRSLQLSLVMRSARELYLSAKVEALEPEVSLPAALPSDPRLHPPREAESTAETATPDGEHPFPEPMDTQEAPTAEETSACCAPRPAKVSRKRRSSSLSDGGDAGLVPSKKARLEEKEEEEGASSEVADRLQPPPAQAEGAFPNLARVLQRRFSGLLNCSPAAPPTAPPACEAKPACRPADSMLNVLVRAVVAF
chain 2: B1 chain 2
B3: FAM122A [human (endogenous in HeLa)] / B55α WT (immunopurified, Fig. 2) [not stated] (parent complex)
chain 1: MAQEKMELDLELPPGTGGSPAEGGGSGGGGGLRRSNSAPLIHGLSDTSPVFQAEAPSARRNSTTFPSRHGLLLPASPVRMHSSRLHQIKQEEGMDLINRETVHEREVQTAMQISHSWEESFSLSDNDVEKSASPKRIDFIPVSPAPSPTRGIGKQCFSPSLQSFVSSNGLPPSPIPSPTTRFTTRRSQSPINCIRPSVLGPLKRKCEMETEYQPKRFFQGITNMLSSDVAQLSDPGVCVSSDTLDGNSSSAGSSCNSPAKVSTTTDSPVSPAQAASPFIPLDELSSK
chain 2: B1 chain 2
B4: PME1 (found with purified B55 variants) [human] / B55α WT (immunopurified, Fig. 2) [not stated] (parent complex)
chain 1: MSALEKSMHLGRLPSRPPLPGSGGSQSGAKMRMGPGRKRDFSPVPWSQYFESMEDVEVENETGKDTFRVYKSGSEGPVLLLLHGGGHSALSWAVFTAAIISRVQCRIVALDLRSHGETKVKNPEDLSAETMAKDVGNVVEAMYGDLPPPIMLIGHSMGGAIAVHTASSNLVPSLLGLCMIDVVEGTAMDALNSMQNFLRGRPKTFKSLENAIEWSVKSGQIRNLESARVSMVGQVKQCEGITSPEGSKSIVEGIIEEEEEDEEGSESISKRKKEDDMETKKDHPYTWRIELAKTEKYWDGWFRGLSNLFLSCPIPKLLLLAGVDRLDKDLTIGQMQGKFQMQVLPQCGHAVHEDAPDKVAEAVATFLIRHRFAEPIGGFQCVFPGC
chain 2: B1 chain 2

Data on 52 variants can be found in paper PMC11446282 (2024).

The variants in one experiment derive from B1. Nature of the experiment: immunopurification of YFP-B55α variants (IP: YFP), Western blot quantification; read off a plot. (Immunoblotting shows a protein as a band on a membrane.)
As to chain 2 D340A, the percent of parent is around 28%.

On to chain 2 H179A, for which the percent of parent was around 93%. Same read-out and setting: in the case of chain 2 F343A it was around 28%. Consider chain 2 L225A, for which the percent of parent was around 75%.

For the variant chain 2 Y337A, the percent of parent is around 50%. On the same count and under the same terms, in the case of chain 2 Y178A it was around 90%; in that of chain 2 D197A, around 80%. On the same count and under the same terms, in the case of chain 2 S287A it was around 130%. As to chain 2 V228A, the percent of parent is around 78%.

On to chain 2 T230A, for which the percent of parent was around 58%. The same measure, in the same setting: in the case of chain 2 L198A it was around 40%; in that of chain 2 I284A, around 160%; in that of chain 2 F280A, around 110%.

In a further experiment the parent is B2. The description is as above.
chain 2 Y178A: the percent of parent was around 55%. Same read-out and setting: in the case of chain 2 Y337A it was around 2%; in that of chain 2 L225A, around 25%; in that of chain 2 I284A, around 65%.

In the case of chain 2 H179A, the percent of parent is around 140%. Same read-out and setting: the result for chain 2 D197A reads around 7%; that for chain 2 T230A, around 50%. In the case of chain 2 S287A, the percent of parent is around 67%. Same read-out and setting: in the case of chain 2 F343A it was around 30%; in that of chain 2 D340A, around 2%; in that of chain 2 V228A, around 70%. Turning to chain 2 L198A, the percent of parent was around 3%.

Consider chain 2 F280A, for which the percent of parent is around 83%.

Another experiment covers variants of B3. Described as above.
As to chain 2 D197A, the percent of parent is around 0%.

For chain 2 H179A, the percent of parent was around 70%. chain 2 V228A: the percent of parent was around 100%.

Regarding chain 2 Y337A, the percent of parent is around 130%. For chain 2 F280A, the percent of parent was around 140%. On the same count and under the same terms, the result for chain 2 F343A reads around 90%; that for chain 2 L198A, around 0%; that for chain 2 Y178A, around 5%. Still for that read-out and setting: the result for chain 2 S287A reads around 63%. Same read-out and setting: in the case of chain 2 T230A it was around 93%.

For the variant chain 2 I284A, the percent of parent is around 97%.

For chain 2 L225A, the percent of parent is around 130%.

With chain 2 D340A, the percent of parent was around 77%.

In the next experiment the parent is B4. The description is as above.
On to chain 2 H179A, for which the percent of parent was around 170%.

For the variant chain 2 D197A, the percent of parent is around 3%. On the same count and under the same terms, in the case of chain 2 Y178A it was around 13%; in that of chain 2 Y337A, around 53%.

For chain 2 F343A, the percent of parent was around 3%. The same measure, in the same setting: the result for chain 2 I284A reads around 13%; that for chain 2 F280A, around 130%. Same read-out and setting: the result for chain 2 T230A reads around 3%; that for chain 2 L198A, around 2%. chain 2 S287A: the percent of parent was around 4%. The same measure, in the same setting: in the case of chain 2 V228A it was around 9%. In the case of chain 2 D340A, the percent of parent is around 50%. chain 2 L225A: the percent of parent was around 3%.
